From IntAct's records for PubMed 19559761

Target: ef1a2_human EEF1A2 (UniProt Q05639)
Sequence of UniProt Q05639 (Q05639 whole entry): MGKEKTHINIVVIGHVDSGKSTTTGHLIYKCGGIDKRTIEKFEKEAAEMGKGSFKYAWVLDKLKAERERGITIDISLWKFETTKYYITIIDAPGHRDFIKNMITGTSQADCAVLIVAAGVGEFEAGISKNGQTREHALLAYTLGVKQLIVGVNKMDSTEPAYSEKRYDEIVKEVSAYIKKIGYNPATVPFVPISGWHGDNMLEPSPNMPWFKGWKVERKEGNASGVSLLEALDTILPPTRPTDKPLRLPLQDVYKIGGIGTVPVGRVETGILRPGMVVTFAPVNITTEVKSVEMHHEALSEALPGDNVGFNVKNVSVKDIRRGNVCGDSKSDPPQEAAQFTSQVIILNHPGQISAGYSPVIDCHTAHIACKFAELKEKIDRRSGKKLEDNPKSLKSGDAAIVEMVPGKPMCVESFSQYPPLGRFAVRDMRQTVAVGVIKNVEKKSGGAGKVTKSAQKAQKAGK

## Leucine-rich repeat serine/threonine-protein kinase 2 (Homo sapiens), Q5S007 G2019S
  effect of a mutation on the interaction: increasing interaction
